Biological target: T1, EphB4 CF2 protein (ECD version with deleted globular domain, 6xHis tagged) (human, UniProt P54760 16-537)
T1 construct: The entry is the precursor
T1 sequence: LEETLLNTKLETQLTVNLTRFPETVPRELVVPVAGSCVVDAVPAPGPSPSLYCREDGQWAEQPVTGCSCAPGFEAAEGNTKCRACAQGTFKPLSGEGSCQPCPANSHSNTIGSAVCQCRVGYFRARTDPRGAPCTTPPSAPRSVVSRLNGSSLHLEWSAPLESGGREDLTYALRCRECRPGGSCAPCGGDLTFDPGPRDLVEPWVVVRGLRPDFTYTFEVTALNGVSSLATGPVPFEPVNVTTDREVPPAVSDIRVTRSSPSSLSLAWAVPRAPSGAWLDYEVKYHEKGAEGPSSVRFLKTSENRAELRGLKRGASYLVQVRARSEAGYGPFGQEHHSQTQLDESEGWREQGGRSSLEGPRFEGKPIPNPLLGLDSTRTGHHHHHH
Test: Ephrin B2-AP binding to B4 proteins immobilized on Ni2+ resin or nitrocellulose membrane
Procedure: To confirm ability of the purified recombinant proteins to bind Ephrin B2, they were tested in an in vitro binding assay. As expected, GC, GCF1 and GCF2, but not CF2 are binding the cognate ligand Ephrin B2 as confirmed by interaction between Ephrin B2-alkaline phosphatase (Ephrin B2-AP) fusion protein with the B4 proteins immobilized on Ni²⁺ resin or on nitrocellulose membrane (FIG. 17).

B1: B2EC-AP reagent (protein fusion of Ephrin B2 ectodomain with placental alkaline phosphatase) (ligand, UniProt P52799 28-229, looked up)
chain: IVLEPIYWNSSNSKFLPGQGLVLYPQIGDKLDIICPKVDSKTVGQYEYYKVYMVDKDQADRCTIKKENTPLLNCAKPDQDIKFTIKFQEFSPNLWGLEFQKNKDYYIISTSNGSLEGLDNQEGGVCQTRAMKILMKVGQDASSAGSTRNKDPTRRPELEAGTNGRSSTTSPFVKPNPGSSTDGNSAGHSGNNILGSEVALFA
notes: extracellular domain; also called B2-AP; Ephrin B2-AP; not shown: placental alkaline phosphatase
B1: no binding.
